According to patent US20260159579A1 (Pfizer, published 2026):
Values joined by “and” are separate entries in the source; they are usually repeats but may differ in a detail not shown here. Equal entries are not always repeated. Where two headings read alike, the source gives them in different places.

Key:
[1] = target: Mouse Fc-mouse GDF15 (Mu IgG1Fc_Fxa_Mu GDF15) (mouse); assay: SPR BIAcore T200, 37C; Fc-GDF15 captured, IgG as analyte
[2] = target: T1, Mouse Fc-human GDF15 (Mu IgG1Fc_Fxa_Hu GDF15) (human); assay: as above
T1 construct: Whole entry is the fusion: mouse IgG1 Fc, FXa site and linker, mature human GDF15; described as dimeric; also called Murine dimeric IgG1 Fc-human GDF-15 with FXa cleavage site; control human GDF15
T1 chain: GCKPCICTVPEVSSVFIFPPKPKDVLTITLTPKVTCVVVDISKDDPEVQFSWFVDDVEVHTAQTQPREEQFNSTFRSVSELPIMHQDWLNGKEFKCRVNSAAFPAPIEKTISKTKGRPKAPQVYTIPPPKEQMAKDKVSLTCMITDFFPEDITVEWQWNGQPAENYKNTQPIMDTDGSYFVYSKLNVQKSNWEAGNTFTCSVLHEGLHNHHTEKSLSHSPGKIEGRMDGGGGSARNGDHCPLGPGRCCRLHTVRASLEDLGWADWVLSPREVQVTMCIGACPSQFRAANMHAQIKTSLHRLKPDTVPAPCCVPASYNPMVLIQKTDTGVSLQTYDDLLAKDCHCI
Description: (§1) Mouse Fc-human GDF15 (Mu IgG1Fc_Fxa_Hu GDF15; SEQ ID NO:2), Mouse Fc-mouse GDF15 (Mu IgG1Fc_Fxa_Mu GDF15; SEQ ID NO:5) and Mouse Fc-cynomolgus monkey GDF15 (Mu IgG1Fc_Fxa_Cyno GDF15; SEQ ID NO:4) were captured onto three different flow cells of a CM4 sensorchip (catalogue number BR100534, GE Healthcare) surface using the Mouse Antibody Capture Kit (BR100838, GE Healthcare) according to the manufacturer's protocol. The running and sample bufferwas 10 mM HEPES pH 7.4, 0.15M NaCl, 3 mM EDTA, 0.05% P-20 (HBS-EP+). The final capture levels of Mu IgG1Fc_Fxa_Hu GDF15, Mu IgG1Fc_Fxa_Mu GDF15 and Mu IgG1Fc_Fxa_Cyno GDF15 were 40 resonance units (RU), 32 RU and 25 RU respectively. Flow cell 1 was used as a reference flow cell. […] The dissociation was monitored for 2.8 hours and the surface was regenerated with 10 mM Glycine pH 1.7. Binding affinities and rate constants were determined for murine and cynomolgus monkey GDF15 by fitting the resulting sensorgram data to a 1:1 Langmuir model in BIAcore T200 Evaluation software version 2.0 (GE Healthcare).
(§2) Additionally, the binding of clone GDF15_001 to cynomolgus monkey and mouse GDF15 was measured using above mentioned BIAcore assay (Table 7).

[3] = target: T1, Mouse Fc-human GDF15 (Mu IgG1Fc_Fxa_Hu …); assay: as above
Description: as §1, §2

[4] = target: T2, Mouse Fc-cynomolgus monkey GDF15 (Mu IgG1Fc_Fxa_Cyno GDF15) (cynomolgus monkey); assay: as above
T2 construct: Whole entry is the fusion: mouse IgG1 Fc, FXa site and linker, cynomolgus GDF15; described as dimeric; also called Murine dimeric IgG1 Fc-cyno GDF-15 with FXa cleavage site
T2 chain: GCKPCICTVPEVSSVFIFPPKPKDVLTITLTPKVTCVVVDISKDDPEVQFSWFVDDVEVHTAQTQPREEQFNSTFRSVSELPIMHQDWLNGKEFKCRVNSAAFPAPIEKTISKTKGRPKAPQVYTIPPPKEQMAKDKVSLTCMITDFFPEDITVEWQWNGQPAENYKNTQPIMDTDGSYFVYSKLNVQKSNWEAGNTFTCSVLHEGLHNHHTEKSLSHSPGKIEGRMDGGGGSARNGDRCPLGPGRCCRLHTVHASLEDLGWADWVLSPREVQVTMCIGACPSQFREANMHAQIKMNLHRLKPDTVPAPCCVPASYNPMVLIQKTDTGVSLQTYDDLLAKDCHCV
Description: as §1, §2

[5] = target: Mouse Fc-mouse GDF15 (Mu IgG1Fc_Fxa_Mu GDF15) (mouse); assay: SPR BIAcore T200, 37C; Fc-GDF15 captured, IgG as analyte; average of runs
[6] = target: T1, Mouse Fc-human GDF15 (Mu IgG1Fc_Fxa_Hu …); assay: SPR BIAcore T200, 37C; Fc-GDF15 captured, IgG as analyte; apparent KD
[7] = target: T1, Mouse Fc-human GDF15 (Mu IgG1Fc_Fxa_Hu …); assay: SPR BIAcore T200, 37C; Fc-GDF15 captured, IgG as analyte; average of runs
Description: as §1, §2

[8] = target: T1, Mouse Fc-human GDF15 (Mu IgG1Fc_Fxa_Hu …); assay: as above
Description: as §1, §2

[9] = target: T2, Mouse Fc-cynomolgus monkey GDF15 (Mu …); assay: as above
Description: as §1, §2

[10] = target: T1, Mouse Fc-human GDF15 (Mu IgG1Fc_Fxa_Hu …); assay: SPR BIAcore T200, 37C; Fc-GDF15 captured, IgG as analyte; average of runs; apparent KD

B1: GDF15_001 (antibody, human IgG1, kappa, V domains shown)
VH: QVQLVQSGAEVKKPGSSVKVSCKASGYTFSSYNIDWVRQAPGQGLEWMGGINPIFGTAFYNQKFQGRVTITADESTSTAYMELSSLRSEDTAVYYCAREAITTVGAMDHWGQGTLVTVSS
VL: EIVLTQSPATLSLSPGERATLSCRTSQSVHNYLAWYQQKPGQAPRLLIYDASTRADGIPARFSGSGSGTDFTLTISSLEPEDFAVYYCQQFWSWPWTFGQGTKVEIKR
notes: Tested in bivalent format; IgG1 heavy chain, kappa light chain; also called ponsegromab; PF-06946860
Kd [1]: 0.114 nM and 0.175 nM and 0.138 nM | T½ min [1]: 0.66 h and 0.447 h and 0.555 h | koff [1]: 0.000292 s⁻¹ and 0.000431 s⁻¹ and 0.000347 s⁻¹ | kon [1]: 2.6e+06 M⁻¹ s⁻¹ and 2.5e+06 M⁻¹ s⁻¹ (2×) | Kd [2]: < 0.01 nM | T½ min [2]: 40.3 h and 20.9 h and 30.8 h | koff [2]: 4.78e-06 s⁻¹ and 9.22e-06 s⁻¹ and 6.25e-06 s⁻¹ | kon [2]: 1.69e+06 M⁻¹ s⁻¹ and 2.18e+06 M⁻¹ s⁻¹ and 2.03e+06 M⁻¹ s⁻¹ | T½ min [3]: 20.9 h and 30.8 h and 40.3 h | koff [3]: 9.22e-06 s⁻¹ and 6.25e-06 s⁻¹ and 4.78e-06 s⁻¹ | kon [3]: 1.69e+06 M⁻¹ s⁻¹ and 2.03e+06 M⁻¹ s⁻¹ and 2.18e+06 M⁻¹ s⁻¹ | Kd [4]: 0.00886 nM and 0.00671 nM and 0.00926 nM | T½ min [4]: 14.8 h and 15.5 h and 18.7 h | koff [4]: 1.3e-05 s⁻¹ and 1.24e-05 s⁻¹ and 1.03e-05 s⁻¹ | kon [4]: 1.47e+06 M⁻¹ s⁻¹ and 1.85e+06 M⁻¹ s⁻¹ and 1.12e+06 M⁻¹ s⁻¹ | Kd [5]: 0.142 nM | koff [5]: 0.000356 s⁻¹ | kon [5]: 2.51e+06 M⁻¹ s⁻¹ | Kd [6]: < 0.01 nM | Kd [7]: < 0.01 nM | koff [7]: 6.75e-06 s⁻¹ | kon [7]: 1.97e+06 M⁻¹ s⁻¹ | koff [8]: 6.75e-06 s⁻¹ | kon [8]: 1.97e+06 M⁻¹ s⁻¹ | Kd [9]: 0.00828 nM | koff [9]: 1.19e-05 s⁻¹ | kon [9]: 1.48e+06 M⁻¹ s⁻¹ | Kd [10]: < 0.01 nM
